This assay has as its target TOLLIP, recombinant from bacteria, biotinylated (human, UniProt Q9H0E2 1-274, biotin (biotinylated TOLLIP; site not told)). Briefly: BLI.

B1: GST-BLK (B lymphoid tyrosine kinase), recombinant from bacteria (enzyme)
chain: not shown
modifications: autophosphorylated as purified (Fig. S5 C); sites not told for this sample
Take B1: the Kd is about 8.39 nM.

(Values after article PMC10711807 (The Journal of Cell Biology, 2023).)
